This is an account of results in patent publication US20230028899A1.

The experiment has as its target CD19 on CD19+ Raji B cells (UniProt P15391). The experiment is described as follows: cell-based or functional assay.
UniProt P15391, sequence (P15391 20-556 limits assumed): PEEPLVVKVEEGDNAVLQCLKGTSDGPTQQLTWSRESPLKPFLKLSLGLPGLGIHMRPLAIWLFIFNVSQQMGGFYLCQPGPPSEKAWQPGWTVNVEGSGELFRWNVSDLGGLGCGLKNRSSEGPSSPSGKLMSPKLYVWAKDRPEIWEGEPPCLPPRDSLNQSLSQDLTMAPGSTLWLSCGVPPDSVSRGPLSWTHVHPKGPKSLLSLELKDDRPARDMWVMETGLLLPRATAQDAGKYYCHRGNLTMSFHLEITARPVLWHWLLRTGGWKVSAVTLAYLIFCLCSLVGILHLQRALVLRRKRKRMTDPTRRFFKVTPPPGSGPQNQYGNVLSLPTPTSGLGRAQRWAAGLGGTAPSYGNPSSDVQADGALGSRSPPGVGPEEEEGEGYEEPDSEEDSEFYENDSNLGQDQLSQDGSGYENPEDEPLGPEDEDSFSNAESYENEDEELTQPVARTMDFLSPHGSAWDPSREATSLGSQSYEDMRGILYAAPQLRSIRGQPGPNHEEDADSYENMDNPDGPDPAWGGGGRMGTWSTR

Regarding “anti-CD19 CAR (anti-CD19 CAR cassette as described in WO 2012/079000), expressed on transduced CD4+ T-cells”, the GFP fluorescence of transduced T-cells (GFP-RDE1, MinP), 24 h co-culture, flow cytometry was found to be 6.5%; the activated cells in the population (CD25/CD69 staining), 24 h co-culture, GFP-RDE1 construct lay in the range of 0.9 to 84.8%; the activated cells in the population (CD25/CD69 staining), 24 h co-culture, GFP-RDE2.1 construct lay within 3.9 to 12.1%; the fold change in IL-12 expression (ELISA), NFAT promoter, 3'-UTR not responsive to CAR stimulation turned out to be 50 fold. The substance also came in with a fold change in IL-12 expression (ELISA), NFAT promoter, RDE1 (Gold1) of 168 fold; a fold change in IL-12 expression (ELISA), minP promoter, RDE1 (Gold1) of 6.3 fold; a fold increase in bioluminescence, MinP promoter, RDE1 of 4.1 fold; a fold increase in bioluminescence, MinP promoter, RDE2 of 1.8 fold. This substance also had a fold increase in bioluminescence, MinP promoter, RDE3 of 1.4 fold; a fold increase in bioluminescence, NFAT promoter, RDE1 of 8.5 fold; a fold increase in bioluminescence, NFAT promoter, RDE2 of 3.1 fold; a fold increase in bioluminescence, NFAT promoter, RDE3 of 1.3 fold.
